Reference: the supplement of paper PMC10567573

B1: ARL6IP1 (parent)
chain: YLDPSVLSGVSCFVMFLCLADYLV
B2: MIA2 (parent)
chain: SVIEPVQESSFRSRKIAVEDENDL

Variants of: B1
Assay: protein stability index of a GFP-peptide fusion (GPS, HEK-293T) (PSI 1-6); higher = more stable
Details: c terminus: a fixed tail appended
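Also: lentivirally expressed fusions sorted by FACS into six bins by GFP to DsRed ratio, PSI derived from sequencing read proportions per bin multiplied by bin number.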

Protein stability index, by site and new letter:
F13: T 4.33, A 3.86, Q 3.58, Y 3.73, W 3.83, N 2.42, K 2.38, C 2.92, D 2.64, I 2.81
P4: K 2.63, N 2.9, M 3.45, I 2.66, L 2.76, G 3.42, C 3.21, D 3.12, V 3.33
V10: S 3.4, P 3.06, C 2.61, N 3.52, E 2.67, A 3.22, K 2.46, W 2.21, M 2.44, D 2.93, Y 2.38, T 1.56, Q 2.89, I 3.18, F 3.19, L 2.97, H 2.26
S11: F 2.24, H 2.62, V 4.17, Y 3.78, P 3.52, E 4.25, G 3.42, C 3.23
S5: D 3.07, R 3.56, M 3.03, I 3.61, G 3.63, K 3.47, H 3.5, N 2.26, L 3.09, P 3.19
A20: F 2.87, T 4.15, W 2.47, I 1.85, Y 3.24, V 1.63, K 3.71, N 3.34, H 2.64, C 3.26
L7: T 2.8, Y 2.89, M 2.98, S 3.62, A 3.11, N 2.74, V 3.69, P 2.4, H 3.82, Q 4, C 1.88
D3: N 3.7, P 3.06, T 2.59, Q 3.57, V 2.91, R 3.64, S 2.72, I 2.83, Y 2.54
L23: I 4.16, V 3.07, E 4.8, N 3.21, Q 2.69, T 3.08, M 2.83, P 2.39, K 3.29, G 2.59, W 2.07, C 3.76, Y 2.27, H 2.74
V24: A 2.78, C 3.6, F 2.97, L 3.97, I 3.52, M 3.77, S 2.53, Y 2.16
S8: F 3.22, I 2.96, R 2.95, M 2.26, L 3.77, G 3.79, H 3.58, C 3.59, V 3.82, N 3.35, T 2.79
D21: K 1.14, F 3.29, Y 1.55, I 3.5, T 3.76, A 2.71, Q 2.58, V 3.96, G 3.14, N 2.7, H 2.6
L19: Q 2.06, S 3.89, A 2.42, W 1.73, D 2.98, K 2.81, R 2.38, T 2.74, F 2.56, C 4.14, M 2.06, N 2.57, Y 1.85, H 3.03, E 3.85, P 2.1
L17: V 2.2, F 2.82, S 1.35, A 2.34, M 4.66, W 3.18, D 2.49, R 2.54, K 3.75, T 3.26, G 4.55, H 2.4
V14: L 2.1, K 1.98, T 2.04, S 2.83, M 3.79, G 2.85, A 2.62, P 3.67, R 1.65, E 2.54, F 2.09, W 2.15, H 2.06
G9: K 2.49, F 3.27, S 2.12, R 2.5, V 3.3, Q 3.72, P 2.66, Y 2.81, E 2.77, N 4.26, H 3.27, T 3.03, L 3.4, A 3.74
Y22: Q 3.52, V 2.14, I 2.44, N 3.07, C 3.08, H 2.31, W 3.48, K 3.93, P 2.87, L 1.58, S 3.94
V6: A 1.44, R 2.76, S 2.79, D 2.36, N 3.08, C 3.38, K 2.51, Q 2.64, T 2.39, Y 2.66, I 3.23
C18: H 2.85, Y 1.96, L 3.54, A 1.91, V 2.09, T 3.26, F 3.35, G 2.47, N 2.68, R 2.65, K 2.37, Q 2.01
C12: P 3.54, G 3.53, Y 2.47, V 3.66, Q 4.12, A 3.07, S 1.48, L 2.45, M 2.56, W 2.26, T 2.24, F 2.47, D 3.35
F16: K 1.74, R 3.63, P 2.64, N 2.88, A 1.99, W 2.85, G 2.14, L 2.62, V 3.72
M15: G 4.04, R 2.59, I 4.76, F 2.3, V 2.38, T 3.04, L 2.76, K 3.66, C 3.3, H 3.49, S 2.79, D 2.69, N 2.88, W 2.93

Variants of: B2
Assay: as above
Details: c terminus: a fixed tail appended

Protein stability index of substitutions, site by site:
V2: A 5.31, M 5.22, D 5.83, W 5.14, N 5.87, R 5.5, P 5.15, Y 5.26, I 4.69, F 4.42, T 5.31, H 5.51, K 5.38, E 5.22, C 5.76, L 5.24, S 5.32, G 5.67, Q 5.82
I3: E 5.61, T 5.6, K 4.92, C 5.5, R 5.59, W 5.13, P 5.13, V 5.62, H 4.67, N 5.61, F 5.32, L 5.59, S 4.84, Q 4.57, D 5.9, G 5.73, Y 5.42, A 5.71, M 5.44
E4: I 4.62, C 5.08, N 5.21, Q 4.7, W 3.74, T 5.35, D 5.01, V 4.71, Y 4.64, F 4.73, M 4.9, L 4.62, P 5.37, K 5.03, H 4.44, R 5, S 5.25, G 5.01, A 5.68
S1: E 5.28, A 5.01, F 2.93, M 4.71, C 5.53, Q 5.39, K 5.13, H 5.52, R 5.32, V 4.33, D 5.68, G 5.17, W 4.46, P 5.59, N 5.69, T 5.45, L 4.33, Y 3.12, I 3.96
P5: D 4.88, A 4.3, C 4.74, F 3.31, E 4.79
